Assay results as given in patent publication US20190002564A1 (Hoffmann-La Roche, published 2019).

T1: human CEA (Carcinoembryonic antigen, CEACAM5) on tumor cells (human, UniProt P06731 35-685, The C-terminal Ala685 carries the GPI anchor. The protein is heavily N-glycosylated.)
T1 sequence: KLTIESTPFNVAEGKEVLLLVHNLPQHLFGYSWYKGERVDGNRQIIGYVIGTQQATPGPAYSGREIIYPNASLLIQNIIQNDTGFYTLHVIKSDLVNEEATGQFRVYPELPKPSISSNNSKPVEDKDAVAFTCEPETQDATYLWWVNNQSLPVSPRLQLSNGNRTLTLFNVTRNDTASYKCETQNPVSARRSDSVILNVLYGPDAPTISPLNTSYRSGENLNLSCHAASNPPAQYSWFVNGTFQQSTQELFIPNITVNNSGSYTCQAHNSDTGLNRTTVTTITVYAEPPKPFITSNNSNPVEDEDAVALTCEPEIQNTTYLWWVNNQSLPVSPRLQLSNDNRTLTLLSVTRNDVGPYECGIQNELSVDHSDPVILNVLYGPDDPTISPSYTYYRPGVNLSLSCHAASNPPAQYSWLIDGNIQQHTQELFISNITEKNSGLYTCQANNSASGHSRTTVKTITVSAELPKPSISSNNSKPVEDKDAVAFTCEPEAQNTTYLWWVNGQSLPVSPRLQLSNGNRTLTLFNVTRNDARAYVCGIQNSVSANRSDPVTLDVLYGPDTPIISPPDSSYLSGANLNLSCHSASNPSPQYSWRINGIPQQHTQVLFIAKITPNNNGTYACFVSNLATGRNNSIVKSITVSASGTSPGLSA


Assays:
[1] = target: T1, human CEA (Carcinoembryonic antigen, …); test: cell-based or functional assay
[2] = target: T1, human CEA (Carcinoembryonic antigen, …); test: cell-based or functional assay; remark: listed apart in the source
[3] = target: T2, human CD3 on Jurkat cells (Homo sapiens, UniProt P07766); test: flow cytometry on Jurkat cells (human CD3), FITC-conjugated anti-human IgG F(ab')2 secondary antibody, median fluorescence intensity
T2 construct: native, on the surface of the Jurkat human T cell line; also called CD3+ cells (Jurkat)
T2 sequence (P07766 23-207): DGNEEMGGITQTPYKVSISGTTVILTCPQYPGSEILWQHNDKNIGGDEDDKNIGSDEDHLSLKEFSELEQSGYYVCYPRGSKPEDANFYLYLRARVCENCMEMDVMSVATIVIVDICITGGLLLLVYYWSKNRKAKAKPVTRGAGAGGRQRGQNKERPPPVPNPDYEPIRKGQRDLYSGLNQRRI
Procedure: (§1) An untargeted TCB (SEQ ID NOs: 59, 60, 61 and 62; see example 24) was used as control. Briefly, cells were harvested, counted, checked for viability and resuspended at 2×10⁶ cells/ml in FACS buffer (100 μl PBS 0.1% BSA).

[4] = target: T3, human MCSP (Melanoma-associated Chondroitin Sulfate Proteoglycan) on tumor cells (human, UniProt Q6UVK1 30-2322); test: flow cytometry on A375 cells (MCSP+), PE-conjugated anti-human IgG Fcγ secondary antibody, median fluorescence intensity
T3 construct: whole, on cells; Cell surface antigen on human tumor cell lines A375 (high), MV-3 (medium), HCT-116 (low); also called CSPG4
T3 sequence (Q6UVK1 30-2322): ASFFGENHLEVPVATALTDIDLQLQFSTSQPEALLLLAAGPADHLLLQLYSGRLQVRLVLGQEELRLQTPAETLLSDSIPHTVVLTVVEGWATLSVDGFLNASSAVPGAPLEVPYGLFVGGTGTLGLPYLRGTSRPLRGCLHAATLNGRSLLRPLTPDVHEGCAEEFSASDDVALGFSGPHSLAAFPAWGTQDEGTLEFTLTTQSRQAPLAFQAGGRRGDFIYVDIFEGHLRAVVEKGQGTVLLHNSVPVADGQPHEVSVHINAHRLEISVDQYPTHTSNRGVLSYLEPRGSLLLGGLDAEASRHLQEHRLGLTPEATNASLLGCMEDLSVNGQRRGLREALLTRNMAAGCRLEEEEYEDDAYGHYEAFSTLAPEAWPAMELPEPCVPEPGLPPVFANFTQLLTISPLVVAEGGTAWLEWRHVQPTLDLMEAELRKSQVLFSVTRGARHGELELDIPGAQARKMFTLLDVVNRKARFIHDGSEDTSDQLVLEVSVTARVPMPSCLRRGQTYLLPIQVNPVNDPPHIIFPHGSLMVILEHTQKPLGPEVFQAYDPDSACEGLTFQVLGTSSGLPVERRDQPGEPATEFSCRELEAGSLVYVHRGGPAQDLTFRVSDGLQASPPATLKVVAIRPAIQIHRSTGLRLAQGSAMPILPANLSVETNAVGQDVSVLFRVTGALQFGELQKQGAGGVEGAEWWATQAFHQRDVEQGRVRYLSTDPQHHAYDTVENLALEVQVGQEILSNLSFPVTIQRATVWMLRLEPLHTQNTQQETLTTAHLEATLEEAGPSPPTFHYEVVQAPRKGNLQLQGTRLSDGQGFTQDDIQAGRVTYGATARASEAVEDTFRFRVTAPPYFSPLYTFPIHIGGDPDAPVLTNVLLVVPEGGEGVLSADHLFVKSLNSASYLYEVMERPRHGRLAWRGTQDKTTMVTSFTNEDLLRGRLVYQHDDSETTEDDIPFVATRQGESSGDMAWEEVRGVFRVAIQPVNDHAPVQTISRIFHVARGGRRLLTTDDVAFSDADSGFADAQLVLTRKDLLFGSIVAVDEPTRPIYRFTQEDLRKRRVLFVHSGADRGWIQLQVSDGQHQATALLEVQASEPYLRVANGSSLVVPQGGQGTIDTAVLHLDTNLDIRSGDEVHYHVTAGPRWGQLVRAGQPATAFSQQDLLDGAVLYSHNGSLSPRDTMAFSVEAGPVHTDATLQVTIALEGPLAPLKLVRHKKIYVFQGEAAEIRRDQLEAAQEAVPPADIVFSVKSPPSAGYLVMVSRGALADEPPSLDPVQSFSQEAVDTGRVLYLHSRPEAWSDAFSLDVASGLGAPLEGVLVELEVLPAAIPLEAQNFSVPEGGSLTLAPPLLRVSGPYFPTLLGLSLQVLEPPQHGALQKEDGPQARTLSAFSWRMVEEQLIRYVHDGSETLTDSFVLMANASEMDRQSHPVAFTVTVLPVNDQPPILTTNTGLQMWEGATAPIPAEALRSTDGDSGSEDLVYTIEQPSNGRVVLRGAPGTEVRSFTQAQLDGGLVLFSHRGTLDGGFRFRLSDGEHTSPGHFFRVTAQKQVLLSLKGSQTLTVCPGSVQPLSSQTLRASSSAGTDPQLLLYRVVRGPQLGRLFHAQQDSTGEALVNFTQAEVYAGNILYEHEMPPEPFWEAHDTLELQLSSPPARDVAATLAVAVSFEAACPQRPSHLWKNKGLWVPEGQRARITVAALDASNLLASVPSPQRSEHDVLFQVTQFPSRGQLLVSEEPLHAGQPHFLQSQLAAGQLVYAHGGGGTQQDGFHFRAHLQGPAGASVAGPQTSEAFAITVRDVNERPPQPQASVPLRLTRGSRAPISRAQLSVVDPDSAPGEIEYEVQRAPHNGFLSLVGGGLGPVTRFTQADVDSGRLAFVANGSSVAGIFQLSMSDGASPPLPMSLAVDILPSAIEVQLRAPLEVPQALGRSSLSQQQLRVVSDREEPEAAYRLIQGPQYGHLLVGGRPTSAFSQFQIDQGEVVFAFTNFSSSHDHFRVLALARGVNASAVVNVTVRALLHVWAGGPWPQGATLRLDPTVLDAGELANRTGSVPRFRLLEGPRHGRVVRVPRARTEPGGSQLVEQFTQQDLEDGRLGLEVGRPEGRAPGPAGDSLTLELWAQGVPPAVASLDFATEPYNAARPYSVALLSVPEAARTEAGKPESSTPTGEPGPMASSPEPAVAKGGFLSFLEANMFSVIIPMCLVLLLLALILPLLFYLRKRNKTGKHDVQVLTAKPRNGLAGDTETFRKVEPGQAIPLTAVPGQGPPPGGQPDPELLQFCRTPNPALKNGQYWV
Procedure: (§2) Briefly, cells were harvested, counted, checked for viability and resuspended at 2×10⁶ cells/ml in FACS buffer (100 μl PBS 0.1% BSA).

[5] = target: T2, human CD3 on Jurkat cells; test: flow cytometry on Jurkat cells (CD3+), PE-conjugated anti-human IgG Fcγ secondary antibody, median fluorescence intensity
Procedure: as §2

[6] = target: T1, human CEA (Carcinoembryonic antigen, …); test: flow cytometry on A549-huCEA cells, FITC-conjugated anti-human IgG F(ab')2 secondary antibody, median fluorescence intensity
Procedure: as §1

Row | Binder | EC50 of killing of A549-hCEA cells at 40 h, cynomolgus PBMCs as effector cells [1] [nM] | EC50 of killing of A549-hCEA cells at 40 h, human PBMCs as effector cells [1] [nM] | EC50 [pM] 48 h for T-cell mediated killing of ASPC1 cells (LDH release, human PBMCs, E:T 10:1) [2] [pM] | EC50 [pM] 48 h for T-cell mediated killing of BxPC-3 cells (LDH release, human PBMCs, E:T 10:1) [2] [pM] | EC50 [pM] 48 h for T-cell mediated killing of HPAFII cells (LDH release, human PBMCs, E:T 10:1) [2] [pM] | binding result [3] | binding result [4] | binding result [5] | binding result [6]
1 | CEA TCB (2+1 Crossfab-IgG P329G LALA inverted) (bispecific antibody, Two anti-CEA Fabs CH1A1A 98/99 2F1, one anti-CD3 crossfab (humanized CH2527), Fc knob-into-hole with P329G LALA; the conventional light chain occurs twice (vector ratio 1:2:1:1); also called CEA TCB antibody) chain 1: DIQMTQSPSSLSASVGDRVTITCKASAAVGTYVAWYQQKPGKAPKLLIYSASYRKRGVPSRFSGSGSGTDFTLTISSLQPEDFATYYCHQYYTYPLFTFGQGTKLEIKRTVAAPSVFIFPPSDEQLKSGTASVVCLLNNFYPREAKVQWKVDNALQSGNSQESVTEQDSKDSTYSLSSTLTLSKADYEKHKVYACEVTHQGLSSPVTKSFNRGEC chain 2: QAVVTQEPSLTVSPGGTVTLTCGSSTGAVTTSNYANWVQEKPGQAFRGLIGGTNKRAPGTPARFSGSLLGGKAALTLSGAQPEDEAEYYCALWYSNLWVFGGGTKLTVLSSASTKGPSVFPLAPSSKSTSGGTAALGCLVKDYFPEPVTVSWNSGALTSGVHTFPAVLQSSGLYSLSSVVTVPSSSLGTQTYICNVNHKPSNTKVDKKVEPKSC chain 3: not shown chain 4: QVQLVQSGAEVKKPGASVKVSCKASGYTFTEFGMNWVRQAPGQGLEWMGWINTKTGEATYVEEFKGRVTFTTDTSTSTAYMELRSLRSDDTAVYYCARWDFAYYVEAMDYWGQGTTVTVSSASTKGPSVFPLAPSSKSTSGGTAALGCLVKDYFPEPVTVSWNSGALTSGVHTFPAVLQSSGLYSLSSVVTVPSSSLGTQTYICNVNHKPSNTKVDKKVEPKSCDKTHTCPPCPAPEAAGGPSVFLFPPKPKDTLMISRTPEVTCVVVDVSHEDPEVKFNWYVDGVEVHNAKTKPREEQYNSTYRVVSVLTVLHQDWLNGKEYKCKVSNKALGAPIEKTISKAKGQPREPQVCTLPPSRDELTKNQVSLSCAVKGFYPSDIAVEWESNGQPENNYKTTPPVLDSDGSFFLVSKLTVDKSRWQQGNVFSCSVMHEALHNHYTQKSLSLSPGK | 0.102 | 0.306 | 846 | 3780 | 667 | binds |  |  | 
2 | untargeted TCB (bispecific antibody, Control bispecific antibody that engages CD3 through humanized CH2527 but no second antigen; also called DP47GS TCB; DP47 GS TCB) polypeptide chain; the text does not say which chain this SEQ ID NO is 1: not shown polypeptide chain; the text does not say which chain this SEQ ID NO is 2: QAVVTQEPSLTVSPGGTVTLTCGSSTGAVTTSNYANWVQEKPGQAFRGLIGGTNKRAPGTPARFSGSLLGGKAALTLSGAQPEDEAEYYCALWYSNLWVFGGGTKLTVLSSASTKGPSVFPLAPSSKSTSGGTAALGCLVKDYFPEPVTVSWNSGALTSGVHTFPAVLQSSGLYSLSSVVTVPSSSLGTQTYICNVNHKPSNTKVDKKVEPKSC polypeptide chain; the text does not say which chain this SEQ ID NO is 3: not shown polypeptide chain; the text does not say which chain this SEQ ID NO is 4: not shown |  |  |  |  |  |  | no binding (tested: about log 5.3 [pM] (about 200 nM)) | binds | no binding (tested: log 6 [pM] (1000 nM))
